Experimental data reported in US20100048462A1, “TRUNCATED PTH PEPTIDES WITH A CYCLIC CONFORMATION” (Zealand Pharma A/S, priority 2006, published 2010).
Read-outs that look alike come from different tables or passages of the source. Values belong to the molecule of their own block, whether it stands above or below them. Bridge positions count the residues as written; N and C are the ends. Square brackets hold non-standard residues; d marks the D form. hArg = N=C(N)NCCCC[C@H](N)C(=O)O; Ac5c = NC1(C(=O)O)CCCC1; Dap = NC[C@H](N)C(=O)O; Aib = CC(C)(N)C(=O)O

Assays:
Test in all cases: cell-based or functional assay
[1] = biological target: PTH receptor 1 on MC3T3-E1 cells (murine) (UniProt P41593)
[2] = biological target: Saos-2 PTH1R (UniProt Q03431)
[3] = biological target: CYP2D6 (Homo sapiens, UniProt P10635)
CYP2D6, sequence (P10635 whole entry): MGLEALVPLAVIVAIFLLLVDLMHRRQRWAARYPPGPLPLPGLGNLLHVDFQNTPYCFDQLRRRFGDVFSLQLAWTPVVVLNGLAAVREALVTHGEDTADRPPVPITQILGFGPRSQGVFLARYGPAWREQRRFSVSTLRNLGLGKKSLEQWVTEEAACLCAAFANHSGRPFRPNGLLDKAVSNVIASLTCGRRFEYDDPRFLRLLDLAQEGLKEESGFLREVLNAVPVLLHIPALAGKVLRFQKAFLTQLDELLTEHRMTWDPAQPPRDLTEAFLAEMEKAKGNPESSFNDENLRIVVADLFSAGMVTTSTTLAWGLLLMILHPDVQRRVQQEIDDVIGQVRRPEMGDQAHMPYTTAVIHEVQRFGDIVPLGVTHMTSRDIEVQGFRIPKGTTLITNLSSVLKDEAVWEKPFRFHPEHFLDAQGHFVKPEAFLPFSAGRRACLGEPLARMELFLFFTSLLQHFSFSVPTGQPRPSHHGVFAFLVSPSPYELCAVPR

PTH receptor 1 on MC3T3-E1 cells (murine), sequence (P41593 27-591): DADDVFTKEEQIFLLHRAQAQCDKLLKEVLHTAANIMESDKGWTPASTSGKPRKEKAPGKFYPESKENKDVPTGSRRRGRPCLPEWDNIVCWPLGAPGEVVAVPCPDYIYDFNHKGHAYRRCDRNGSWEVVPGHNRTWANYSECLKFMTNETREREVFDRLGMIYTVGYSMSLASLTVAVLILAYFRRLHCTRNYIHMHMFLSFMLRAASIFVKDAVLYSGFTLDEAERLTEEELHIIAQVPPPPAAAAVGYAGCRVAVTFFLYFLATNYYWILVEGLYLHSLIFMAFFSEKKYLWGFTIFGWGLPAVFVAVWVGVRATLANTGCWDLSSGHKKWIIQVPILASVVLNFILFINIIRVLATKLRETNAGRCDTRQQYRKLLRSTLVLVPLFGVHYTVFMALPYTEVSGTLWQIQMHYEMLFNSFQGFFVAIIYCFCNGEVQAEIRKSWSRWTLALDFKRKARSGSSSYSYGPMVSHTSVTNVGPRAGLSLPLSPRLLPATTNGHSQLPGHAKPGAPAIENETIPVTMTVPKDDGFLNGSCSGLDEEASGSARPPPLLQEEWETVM
Saos-2 PTH1R, sequence (Q03431 27-593 limits assumed): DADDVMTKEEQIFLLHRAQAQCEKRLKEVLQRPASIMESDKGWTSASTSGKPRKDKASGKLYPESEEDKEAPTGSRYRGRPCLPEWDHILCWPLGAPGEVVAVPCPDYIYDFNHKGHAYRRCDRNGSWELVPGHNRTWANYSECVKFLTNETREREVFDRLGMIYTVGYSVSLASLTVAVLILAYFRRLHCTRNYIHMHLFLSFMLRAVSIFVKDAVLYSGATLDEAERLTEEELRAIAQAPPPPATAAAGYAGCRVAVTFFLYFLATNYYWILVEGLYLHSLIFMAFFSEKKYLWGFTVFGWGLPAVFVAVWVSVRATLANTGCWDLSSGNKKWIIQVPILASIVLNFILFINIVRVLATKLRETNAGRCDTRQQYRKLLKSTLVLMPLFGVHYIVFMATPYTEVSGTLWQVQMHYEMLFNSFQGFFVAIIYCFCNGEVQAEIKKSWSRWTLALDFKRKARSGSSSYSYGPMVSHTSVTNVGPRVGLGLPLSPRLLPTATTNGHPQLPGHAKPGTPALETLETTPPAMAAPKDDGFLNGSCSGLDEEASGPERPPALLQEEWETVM

Molecule: (H-Ac5c-Val-Aib-Glu-Ile-Gln-Leu-Met-His-Gln-Har-Ala-Lys( )-Trp-Leu-Asp( )-NH2)2 (peptide)
EC50, cAMP in an osteoblast-like cell line (MC3T3-E1) [1]: 1 nM
Emax, cAMP efficacy assay in MC3T3-E1 cells [1]: 5 pmol/well
agonist potency relative to SEQ ID NO: 30, cAMP in MC3T3-E1 cells (fold stronger) [1]: 8
pEC50, cAMP efficacy assay in MC3T3-E1 cells [1]: 8.9 -log(M)
Emax, cAMP efficacy assay in Saos-2 cells (33T, trifluoroacetate salt) (relative to control (SEQ ID NO: 32)) [2]: 1.1
pEC50, cAMP efficacy assay in Saos-2 cells (33T, trifluoroacetate salt) [2]: 7.88 -log(M)

Molecule: H-[Ac5c]V[Aib]EIQLLHQ[hArg]AKWLND-NH2 (lactam 13-17; also: acetate and trifluoroacetate salts) [H-Ac5c-Val-Aib-Glu-Ile-Gln-Leu-Leu-His-Gln-Har-Ala-Lys( )-Trp-Leu-Asn-Asp( )-NH2]
Emax, cAMP efficacy assay in Saos-2 cells (19A/T, acetate/trifluoroacetate salts) (relative to control (SEQ ID NO: 32)) [2]: 1.05
pEC50, cAMP efficacy assay in Saos-2 cells (19A/T, acetate/trifluoroacetate salts) [2]: 7.99 -log(M)
CYP2D6 activity (% of vehicle), dextrorphan formation rate in human liver microsomes, 10 µM peptide [3]: 90 % of vehicle

B1: H-Ac5c-Val-Aib-Glu-Ile-Gln-Leu-Met-His-Asn-Leu-Gly-Lys-His-Leu-Asn-Asp-NH2 (peptide)
chain: H-[Ac5c]V[Aib]EIQLMHNLGKHLND-NH2
SMILES: CC[C@H](C)[C@H](NC(=O)[C@H](CCC(=O)O)NC(=O)C(C)(C)NC(=O)[C@@H](NC(=O)C1(N)CCCC1)C(C)C)C(=O)N[C@@H](CCC(N)=O)C(=O)N[C@@H](CC(C)C)C(=O)N[C@@H](CCSC)C(=O)N[C@@H](Cc1c[nH]cn1)C(=O)N[C@@H](CC(N)=O)C(=O)N[C@@H](CC(C)C)C(=O)NCC(=O)N[C@@H](CCCCN)C(=O)N[C@@H](Cc1c[nH]cn1)C(=O)N[C@@H](CC(C)C)C(=O)N[C@@H](CC(N)=O)C(=O)N[C@@H](CC(=O)O)C(N)=O
Emax, cAMP efficacy assay in Saos-2 cells (34T, trifluoroacetate salt) (relative to control (SEQ ID NO: 32)) [2]: 1.12
pEC50, cAMP efficacy assay in Saos-2 cells (34T, trifluoroacetate salt) [2]: 6.67 -log(M)
CYP2D6 activity (% of vehicle), dextrorphan formation rate in human liver microsomes, 10 µM peptide [3]: 57 % of vehicle
CYP2D6 activity (% of vehicle), dextrorphan formation rate in human liver microsomes, 10 µM peptide ([3]; record 2): 107 % of vehicle

B3: H-Ac5c-Val-Aib-Glu-Ile-Gln-Leu-Met-His-Gln-Har-Ala-Cys( )-Trp-Leu-Asn-Cys( )-NH2 (peptide)
chain: H-[Ac5c]V[Aib]EIQLMHQ[hArg]ACWLNC-NH2
modifications: disulfide 13-17
SMILES: CC[C@H](C)[C@H](NC(=O)[C@H](CCC(=O)O)NC(=O)C(C)(C)NC(=O)[C@@H](NC(=O)C1(N)CCCC1)C(C)C)C(=O)N[C@@H](CCC(N)=O)C(=O)N[C@@H](CC(C)C)C(=O)N[C@@H](CCSC)C(=O)N[C@@H](Cc1c[nH]cn1)C(=O)N[C@@H](CCC(N)=O)C(=O)N[C@@H](CCCCNC(=N)N)C(=O)N[C@@H](C)C(=O)N[C@H]1CSSC[C@@H](C(N)=O)NC(=O)[C@H](CC(N)=O)NC(=O)[C@H](CC(C)C)NC(=O)[C@H](Cc2c[nH]c3ccccc23)NC1=O
Emax, cAMP efficacy assay in Saos-2 cells (7T, trifluoroacetate salt) (relative to control (SEQ ID NO: 32)) [2]: 1.2
pEC50, cAMP efficacy assay in Saos-2 cells (7T, trifluoroacetate salt) [2]: 7.3 -log(M)
CYP2D6 activity (% of vehicle), dextrorphan formation rate in human liver microsomes, 10 µM peptide [3]: 85 % of vehicle

B5: H-Ac5c-Val-Aib-Glu-Ile-Gln-Leu-Leu-His-Gln-Har-Ala-Dpr( )-Trp-Leu-Asn-Asp( )-NH2 (peptide)
chain: H-[Ac5c]V[Aib]EIQLLHQ[hArg]A[Dap]WLND-NH2
modifications: lactam 13-17
SMILES: CC[C@H](C)[C@H](NC(=O)[C@H](CCC(=O)O)NC(=O)C(C)(C)NC(=O)[C@@H](NC(=O)C1(N)CCCC1)C(C)C)C(=O)N[C@@H](CCC(N)=O)C(=O)N[C@@H](CC(C)C)C(=O)N[C@@H](CC(C)C)C(=O)N[C@@H](Cc1c[nH]cn1)C(=O)N[C@@H](CCC(N)=O)C(=O)N[C@@H](CCCCNC(=N)N)C(=O)N[C@@H](C)C(=O)N[C@H]1CNC(=O)C[C@@H](C(N)=O)NC(=O)[C@H](CC(N)=O)NC(=O)[C@H](CC(C)C)NC(=O)[C@H](Cc2c[nH]c3ccccc23)NC1=O
Emax, cAMP efficacy assay in Saos-2 cells (17T, trifluoroacetate salt) (relative to control (SEQ ID NO: 32)) [2]: 1.25
pEC50, cAMP efficacy assay in Saos-2 cells (17T, trifluoroacetate salt) [2]: 6.11 -log(M)
CYP2D6 activity (% of vehicle), dextrorphan formation rate in human liver microsomes, 10 µM peptide [3]: 101 % of vehicle

Second part, the molecule after the results:

Emax, cAMP efficacy assay in MC3T3-E1 cells [1]: 5 pmol/well
pEC50, cAMP efficacy assay in MC3T3-E1 cells [1]: 8 -log(M)
Emax, cAMP efficacy assay in Saos-2 cells (30T, trifluoroacetate salt) (relative to control (SEQ ID NO: 32)) [2]: 1.04
pEC50, cAMP efficacy assay in Saos-2 cells (30T, trifluoroacetate salt) [2]: 7.09 -log(M)
CYP2D6 activity (% of vehicle), dextrorphan formation rate in human liver microsomes, 10 µM peptide [3]: 83 % of vehicle
Molecule: H-Ac5c-Val-Aib-Glu-Ile-Gln-Leu-Met-His-Gln-Har-Ala-Lys( )-Trp-Leu-Asp( )-NH2 (peptide)

Emax, cAMP efficacy assay in MC3T3-E1 cells [1]: 4.4 pmol/well
Molecule: PTH(1-34) (peptide)

Emax, cAMP efficacy assay in Saos-2 cells (9T, trifluoroacetate salt) (relative to control (SEQ ID NO: 32)) [2]: 1.03
pEC50, cAMP efficacy assay in Saos-2 cells (9T, trifluoroacetate salt) [2]: 7.85 -log(M)
CYP2D6 activity (% of vehicle), dextrorphan formation rate in human liver microsomes, 10 µM peptide [3]: 85 % of vehicle
B2: H-Ac5c-Val-Aib-Glu-Ile-Gln-Leu-Met-His-Gln-Har-Ala-Lys( )-Trp-Leu-Asn-Glu( )-NH2 (peptide)
chain: H-[Ac5c]V[Aib]EIQLMHQ[hArg]AKWLNE-NH2
modifications: lactam 13-17
SMILES: CC[C@H](C)[C@H](NC(=O)[C@H](CCC(=O)O)NC(=O)C(C)(C)NC(=O)[C@@H](NC(=O)C1(N)CCCC1)C(C)C)C(=O)N[C@@H](CCC(N)=O)C(=O)N[C@@H](CC(C)C)C(=O)N[C@@H](CCSC)C(=O)N[C@@H](Cc1c[nH]cn1)C(=O)N[C@@H](CCC(N)=O)C(=O)N[C@@H](CCCCNC(=N)N)C(=O)N[C@@H](C)C(=O)N[C@H]1CCCCNC(=O)CC[C@@H](C(N)=O)NC(=O)[C@H](CC(N)=O)NC(=O)[C@H](CC(C)C)NC(=O)[C@H](Cc2c[nH]c3ccccc23)NC1=O

EC50, cAMP in an osteoblast-like cell line (MC3T3-E1) [1]: 1 nM
Emax, cAMP efficacy assay in MC3T3-E1 cells [1]: 4.9 pmol/well
agonist potency relative to SEQ ID NO: 2, cAMP in MC3T3-E1 cells [1]: 6 fold weaker
pEC50, cAMP efficacy assay in MC3T3-E1 cells [1]: 9 -log(M)
Emax, cAMP efficacy assay in MC3T3-E1 cells ([1]; record 2): 5.7 pmol/well
pEC50, cAMP efficacy assay in MC3T3-E1 cells ([1]; record 2): 8.2 -log(M)
Emax, cAMP efficacy assay in Saos-2 cells (2A, acetate salt) (relative to control (SEQ ID NO: 32)) [2]: 0.99
Emax, cAMP efficacy assay in Saos-2 cells (2C, chloride salt) (relative to control (SEQ ID NO: 32)) [2]: 0.94
Emax, cAMP efficacy assay in Saos-2 cells (2T, trifluoroacetate salt) (relative to control (SEQ ID NO: 32)) [2]: 0.7
Emax, cAMP efficacy assay in Saos-2 cells (42T, trifluoroacetate salt) (relative to control (SEQ ID NO: 32)) [2]: 1.03
pEC50, cAMP efficacy assay in Saos-2 cells (2A, acetate salt) [2]: 8.2 -log(M)
pEC50, cAMP efficacy assay in Saos-2 cells (2C, chloride salt) [2]: 8.18 -log(M)
pEC50, cAMP efficacy assay in Saos-2 cells (2T, trifluoroacetate salt) [2]: 8.18 -log(M)
pEC50, cAMP efficacy assay in Saos-2 cells (42T, trifluoroacetate salt) [2]: 7.68 -log(M)
CYP2D6 activity (% of vehicle), dextrorphan formation rate in human liver microsomes, 10 µM peptide [3]: 29 % of vehicle
CYP2D6 activity (% of vehicle), dextrorphan formation rate in human liver microsomes, 10 µM peptide ([3]; record 2): 67 % of vehicle
B4: H-Ac5c-Val-Aib-Glu-Ile-Gln-Leu-Met-His-Gln-Har-Ala-Lys-Trp-Leu-Asn-Asp-NH2 (peptide)
chain: H-[Ac5c]V[Aib]EIQLMHQ[hArg]AKWLND-NH2
SMILES: CC[C@H](C)[C@H](NC(=O)[C@H](CCC(=O)O)NC(=O)C(C)(C)NC(=O)[C@@H](NC(=O)C1(N)CCCC1)C(C)C)C(=O)N[C@@H](CCC(N)=O)C(=O)N[C@@H](CC(C)C)C(=O)N[C@@H](CCSC)C(=O)N[C@@H](Cc1c[nH]cn1)C(=O)N[C@@H](CCC(N)=O)C(=O)N[C@@H](CCCCNC(=N)N)C(=O)N[C@@H](C)C(=O)N[C@@H](CCCCN)C(=O)N[C@@H](Cc1c[nH]c2ccccc12)C(=O)N[C@@H](CC(C)C)C(=O)N[C@@H](CC(N)=O)C(=O)N[C@@H](CC(=O)O)C(N)=O

Emax, cAMP efficacy assay in Saos-2 cells (21T, trifluoroacetate salt) (relative to control (SEQ ID NO: 32)) [2]: 1.4
pEC50, cAMP efficacy assay in Saos-2 cells (21T, trifluoroacetate salt) [2]: 6.82 -log(M)
CYP2D6 activity (% of vehicle), dextrorphan formation rate in human liver microsomes, 10 µM peptide [3]: 92 % of vehicle
B6: H-Ac5c-Val-Aib-Glu-Ile-Gln-Leu-Val-His-Gln-Har-Ala-Lys( )-Trp-Leu-Asn-Asp( )-NH2 (peptide)
chain: H-[Ac5c]V[Aib]EIQLVHQ[hArg]AKWLND-NH2
modifications: lactam 13-17
SMILES: CC[C@H](C)[C@H](NC(=O)[C@H](CCC(=O)O)NC(=O)C(C)(C)NC(=O)[C@@H](NC(=O)C1(N)CCCC1)C(C)C)C(=O)N[C@@H](CCC(N)=O)C(=O)N[C@@H](CC(C)C)C(=O)N[C@H](C(=O)N[C@@H](Cc1c[nH]cn1)C(=O)N[C@@H](CCC(N)=O)C(=O)N[C@@H](CCCCNC(=N)N)C(=O)N[C@@H](C)C(=O)N[C@H]1CCCCNC(=O)C[C@@H](C(N)=O)NC(=O)[C@H](CC(N)=O)NC(=O)[C@H](CC(C)C)NC(=O)[C@H](Cc2c[nH]c3ccccc23)NC1=O)C(C)C
